The record followed here is the supplement of paper PMC9732359.

This data set can be described thus: protein stability index of a GFP-peptide fusion (yeast GPS) (PSI 1-4); higher = more stable; sorted into four equal gates, so the index is relative within each strain. In short, it runs like this: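 Plasmids in a pooled yeast library fused tiled 17-residue yeast protein peptides downstream of GFP and also expressed Cherry. Mid-log cultures grown without leucine were sorted into four equal gates by GFP/Cherry fluorescence ratio. Each gate's plasmids were PCR-amplified and Illumina-sequenced, and reads were matched to strains by barcodes. The protein stability index is derived by multiplying each gate's read frequency by its gate number and summing the results.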

± gives the uncertainty stated by the source.

As for KNIHISKRSKIDIINKL [YML103C/NUP188], the protein stability index runs as follows: (doa10∆) 1.34 ± 0.17; (ubr1∆) 1.49 ± 0.14.

For the sequence TCAVGVKGKNCVVLGCE [PRE6], the protein stability index (ubr1∆) was 3.42 ± 0.24.

In the case of ATPIPEEVQQAQTEIKL [RPS5], the protein stability index came to 2.82 ± 0.11 (doa10∆), 2.89 ± 0.1 (pdr5∆), 2.97 ± 0.096 (san1∆) and 3.05 ± 0.11 (ubr1∆).

Consider VSTPEKWDITTRNSNNL [BRR2], for which the protein stability index amounted to 3.27 ± 0.14 (doa10∆), 3.19 ± 0.17 (pdr5∆), 3.26 ± 0.082 (san1∆) and 3.04 ± 0.069 (ubr1∆).

On to STIITKAINQELEDVAV [YCS4], for which the protein stability index by setting is: (doa10∆) 2.96 ± 0.23; (pdr5∆) 3.22 ± 0.11; (san1∆) 2.72 ± 0.057; (ubr1∆) 3.04 ± 0.061.

Take RLELAGQLISLLFEDLF [RET1]: the protein stability index is, setting by setting: (doa10∆) 2.65 ± 0.092; (pdr5∆) 2.9 ± 0.12; (san1∆) 2.67 ± 0.082; (ubr1∆) 2.91 ± 0.075.

Take KLYTKELSVTGSAINHH [YMR129W/POM152]: the protein stability index reads like this: (doa10∆) 1.22 ± 0.12; (pdr5∆) 1.35 ± 0.077; (san1∆) 1.46 ± 0.23; (ubr1∆) 1.49 ± 0.06.

As to TSKSFSKLLYDDVTCDK [SIN4], the protein stability index is, setting by setting: (doa10∆) 3.01 ± 0.077; (pdr5∆) 2.9 ± 0.051; (san1∆) 2.7 ± 0.054; (ubr1∆) 3.16 ± 0.039.

For DASTPLRSTENGIVDQV [RPB2], the protein stability index by setting is: (doa10∆) 2.94 ± 0.12; (pdr5∆) 3.33 ± 0.1; (san1∆) 3.34 ± 0.06; (ubr1∆) 3.47 ± 0.092.

Consider LEQQKQPTGLLKGLNGF [YMR153W/NUP53], for which the protein stability index came to 3.53 ± 0.12 (doa10∆), 3.46 ± 0.11 (pdr5∆), 3.18 ± 0.11 (san1∆) and 3.34 ± 0.074 (ubr1∆).

Consider LKRSTELLETVSLTKRK [YIL149C/MLP2], for which the protein stability index was found to be 1.66 ± 0.056 (doa10∆), 2.06 ± 0.045 (pdr5∆), 2.09 ± 0.079 (san1∆) and 1.6 ± 0.027 (ubr1∆).

As for DNLGQTKIIMATNRPDT [RPT4], the protein stability index is 2.76 ± 0.084 (doa10∆), 2.56 ± 0.1 (pdr5∆), 2.79 ± 0.079 (san1∆) and 2.67 ± 0.079 (ubr1∆).

In turn, NGKLTSANERLFGNRPS [YML031W/NDC1] yielded a protein stability index (doa10∆) of 2.72 ± 0.11, a protein stability index (pdr5∆) of 3.03 ± 0.076, a protein stability index (san1∆) of 2.69 ± 0.094 and a protein stability index (ubr1∆) of 2.94 ± 0.066.

Consider NGSSDASSLRFGNSLSN [YDL088C/ASM4], for which the protein stability index (doa10∆) was 2.77 ± 0.071, the protein stability index (pdr5∆) came out at 2.76 ± 0.075, the protein stability index (san1∆) came to 2.69 ± 0.05 and the protein stability index (ubr1∆) was 2.56 ± 0.1.

On to FGNIMDNLLEMSDHSLD [RRP6], for which the protein stability index runs as follows: (doa10∆) 2.42 ± 0.074; (pdr5∆) 2.58 ± 0.065; (san1∆) 1.89 ± 0.1; (ubr1∆) 3.27 ± 0.05.

Regarding NANRVFRTRFQDGTSVV [SMC2], the protein stability index runs as follows: (doa10∆) 2.74 ± 0.16; (pdr5∆) 1.29 ± 0.1; (san1∆) 2.31 ± 0.26; (ubr1∆) 2.34 ± 0.085.

Turning to KSSGSSMATPTHSDSHE [ROX3], the protein stability index is, setting by setting: (doa10∆) 3.08 ± 0.16; (pdr5∆) 2.97 ± 0.1; (san1∆) 2.82 ± 0.064; (ubr1∆) 2.52 ± 0.091.

With MIQKVMEYLKSSKSLDL [RPN5], the protein stability index worked out at 2.6 ± 0.051 (doa10∆), 1.55 ± 0.039 (pdr5∆), 2.3 ± 0.057 (san1∆) and 2.46 ± 0.05 (ubr1∆).

Regarding SINVHSNNITSGLNRAI [RET1], the protein stability index reads like this: (doa10∆) 3.19 ± 0.1; (pdr5∆) 3.24 ± 0.07; (san1∆) 3.24 ± 0.052; (ubr1∆) 3.17 ± 0.052.

For RAEALNISGEFFRNKLK [RPL16B], the protein stability index was 2.4 ± 0.25 (pdr5∆) and 2.9 ± 0.13 (ubr1∆).

FLGEQVNEPTKNEEAEI [RPN1]: for the setting “ubr1∆”, the protein stability index stood at 3.56 ± 0.26.

Turning to FLIDVLKIYAQIEKKEI [YCG1], the protein stability index is, setting by setting: (doa10∆) 1.26 ± 0.07; (pdr5∆) 1.93 ± 0.063; (san1∆) 1.21 ± 0.11; (ubr1∆) 1.4 ± 0.054.

For FLLEKAGERKIPHDLNF [TAF14], the protein stability index is, setting by setting: (doa10∆) 2.43 ± 0.067; (pdr5∆) 2.71 ± 0.062; (san1∆) 2.61 ± 0.051; (ubr1∆) 2.47 ± 0.046.

Sequence FSRRFDCRDVYCHEKEL [CSN9] returned a protein stability index (ubr1∆) of 2.99 ± 0.19.

As to TVNEPQMSDKHATVVPP [SRB7], the protein stability index runs as follows: (doa10∆) 2.73 ± 0.12; (pdr5∆) 2.83 ± 0.11; (san1∆) 2.89 ± 0.093; (ubr1∆) 3.07 ± 0.092.

With ITSINVENDTFIERNFT [FAS2], the protein stability index (doa10∆) was 3.01 ± 0.089, the protein stability index (pdr5∆) came out at 2.68 ± 0.081, the protein stability index (san1∆) is 3.17 ± 0.072 and the protein stability index (ubr1∆) came out at 3.19 ± 0.05.

Turning to KKVSRRNARATRAAKIA [RPL13A], the protein stability index by setting is: (doa10∆) 2.25 ± 0.085; (pdr5∆) 2.9 ± 0.1; (san1∆) 2.39 ± 0.077; (ubr1∆) 2.77 ± 0.045.
